Measurements: the supplement of paper PMC9732359
± gives the uncertainty stated by the source.

experiment: protein stability index of a GFP-peptide fusion (yeast GPS) (PSI 1-4); higher = more stable; sorted into four equal gates, so the index is relative within each strain; conditions: ubr1∆
Procedure, shortened: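 Mid-log yeast cultures in leucine-free medium, carrying a pooled plasmid library, were sorted into four equal gates by their GFP/Cherry fluorescence ratio. Each plasmid expressed Cherry along with GFP fused upstream of a tiled 17-residue yeast protein peptide. Plasmids recovered from each gate were PCR-amplified and Illumina-sequenced, with reads assigned to strains by barcodes. The protein stability index was obtained by summing each gate's read frequency weighted by its gate number.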

Row | Sequence | protein stability index
1 | AIGTKRYDSNSGGEREI [RPT2] | 3.5 ± 0.13
2 | AIGYEPLSLTHRDKNKM [DIS3] | 2.93 ± 0.042
3 | AIHIFESYYNWKYNNFL [YML103C/NUP188] | 2.62 ± 0.17
4 | AILKLLENMPHPWEQAK [PRP8] | 2.16 ± 0.057
5 | AILQEKILSILNRSHFA [ECM29] | 2.35 ± 0.051
6 | AILYTKPGHVLQEEWDQ [YGR119C/NUP57] | 3.81 ± 0.23
7 | AIQFVKENELLFGEKSI [YCS4] | 1.92 ± 0.069
8 | AISKKDLEEVKRFQVLY [SEC65] | 2.3 ± 0.13
9 | AISLGLLKGSIDQVNEL [RPN9] | 3.21 ± 0.039
10 | AKCNSLLQLKYFSNKTS [POP5] | 2.2 ± 0.08
11 | AKILSQAPTELELQVAQ [RPS7A] | 2.5 ± 0.046
12 | AKKLPNGNWEVGVHIAD [DIS3] | 3.25 ± 0.16
13 | AKKQNYKLTNDEEGIFS [YCG1] | 3.19 ± 0.075
14 | AKKTIQNPLNKSQNTAL [SIR4] | 3.08 ± 0.045
15 | AKLESLLENSVDKNFDK [MTW1] | 3.32 ± 0.066
16 | AKNRILASKIKQYERLR [RRI1] | 2.58 ± 0.036
17 | AKRNLPHTTLVNECIAQ [CDC53] | 2.68 ± 0.04
18 | ALAFGYVKSLHKQISAE [SIN4] | 2.32 ± 0.043
19 | ALKGPVRDKLDEYQAAV [DPB4] | 3.17 ± 0.064
20 | ALKKSRSKGKQNRPYNH [RPC17] | 2.42 ± 0.091
21 | ALNGIDINTVNTNLMNG [GRR1] | 3.1 ± 0.045
22 | ALNKISKYYPGVIIKVE [SNU114] | 2.33 ± 0.063
23 | ALTVQEVLNRVASRHPS [YDL116W/NUP84] | 3.3 ± 0.047
24 | AMANAPGNNIPYMNHKN [GAL11] | 2.75 ± 0.16
25 | AMIDAGALEEITKDHKV [FAS2] | 2.19 ± 0.2
26 | AMKELAEKKIPLVIRRY [RPO26] | 1.73 ± 0.11

Row | Sequence | protein stability index
27 | AMTAAEHGLHAPAYAWS [CYT1] | 3.27 ± 0.064
28 | ANFIFSPASGIVDKYIG [RPT4] | 2.42 ± 0.077
29 | ANKEKKRAEKAARKAEK [RPL24B] | 3.52 ± 0.078
30 | ANLLFKKEKLKQENSTL [RPC82] | 1.93 ± 0.06
31 | ANVFRLENQKDLVIVDE [MTW1] | 3.43 ± 0.074
32 | ANVNASAMPAPYMPYYY [DSN1] | 2.65 ± 0.055
33 | APEKDIWVGEWKEVLAH [RPO31] | 2.51 ± 0.062
34 | APEQQVQQFAQLPVGFK [UBP6] | 2.99 ± 0.037
35 | APHDSEATLLTNSNNGS [SNF5] | 2.97 ± 0.043
36 | APKGSTDPKELYNNAHV [RPC40] | 3.21 ± 0.062
37 | APMRLATAALEIILKLC [YJL039C/NUP192] | 2.4 ± 0.057
38 | APTRELVQQIQKETQKV [PRP28] | 3.14 ± 0.065
39 | APVETKKKRFEIKKWTA [HRT1] | 3.27 ± 0.09
40 | AQDEEIHKQIVIEMKRC [UBP6] | 3.2 ± 0.14
41 | AQQQKRGGFGGRNRGRP [RPS2] | 3.51 ± 0.15
42 | AQSHQRFNAKVSMVKRA [CDC53] | 1.64 ± 0.031
43 | ARAAKIAPRPLDLLRPV [RPL13B] | 2.41 ± 0.043
44 | ARDLATMTYEEVAKRLV [FAS1] | 3.02 ± 0.073
45 | ARDLLDDLEKTLDKKDS [RPN9] | 2.56 ± 0.1
46 | ARILARSERKRTKISRG [ITC1] | 2.06 ± 0.046
47 | ASEREELALIEEAYDNP [PRP8] | 3.5 ± 0.14
48 | ASHNVRRIPKRMRNRAL [POP1] | 2.07 ± 0.25
49 | ASIESADILCPLLESFI [IRR1] | 2.85 ± 0.13
50 | ASKLAAYNKKSTISARE [HTB1] | 3.21 ± 0.11
51 | ASLNLLQLAPGAHLGRF [RPL4A] | 3.26 ± 0.076
52 | ASRDKTLISWKLTGDDQ [ASC1] | 1.61 ± 0.094

Row | Sequence | protein stability index
53 | ASRNVWSFYNGNVLIND [SNU114] | 2.99 ± 0.063
54 | ASSNFPFLNETKPGVYY [RPC82] | 2.99 ± 0.072
55 | ASVVPSASSLVITALKE [RPL12A] | 1.96 ± 0.045
56 | ASYAKIEIKISDPLTVF [SNU114] | 1.45 ± 0.089
57 | ATAFNKTRGPFHFRAPS [RPL16A] | 2.71 ± 0.072
58 | ATAVAHVKAGKGLIKVN [RPS16A] | 1.21 ± 0.24
59 | ATIIGIISTAIADSTHV [ECM29] | 1.51 ± 0.04
60 | ATKAINGCIFTLNPKTG [PRP8] | 2.88 ± 0.062
61 | ATLGIDPPKGILLYGPP [RPT1] | 2.98 ± 0.047
62 | ATNTFGSNQQSSTGGGL [YGR119C/NUP57] | 2.9 ± 0.075
63 | ATSDNKTTNTTPSFSFG [YJL041W/NSP1] | 3.1 ± 0.042
64 | ATSSTNANAGLFNKPPS [YOR098C/NUP1] | 3.3 ± 0.058
65 | ATVPSGRPETYIWRYLP [RPO31] | 1.49 ± 0.11
66 | AVATPKAEVTQLSNGIV [COR1] | 2.88 ± 0.045
67 | AVDAKQLAQIRQFLKAN [YML103C/NUP188] | 2.78 ± 0.067
68 | AVKDQQKYTKEMIDSHI [SNF2] | 2.95 ± 0.043
69 | AVKLGDLKKFTSTITKY [RPN3] | 2.56 ± 0.035
70 | AVNMTQNIMTLPDGKNG [MED6] | 3.07 ± 0.062
71 | AVTEATSTNGDSENNEE [RGR1] | 3.08 ± 0.073
72 | AVVGQQIISGNRVPDGF [RPO31] | 2.65 ± 0.13
73 | AVVVGTGNIKHEDLVNS [COR1] | 2.71 ± 0.11
74 | AVYFADTSGLKISNSEF [SIN4] | 3.18 ± 0.063
75 | AYSMGAQNQGGQVSMSQ [PGD1] | 3.22 ± 0.076
76 | AYVVNDTAPKPNIVEID [DLS1] | 3.15 ± 0.19
77 | CAYTGTGDVLLIQDLLH [RPN1] | 2.8 ± 0.052
78 | CCINAAFLALVDAGIAL [RRP46] | 2.62 ± 0.051

Row | Sequence | protein stability index
79 | CCTKFFTMMTSEPLTLK [PCI8] | 1.64 ± 0.053
80 | CDYYNTFLLNNKNIDIG [RPN2] | 2.79 ± 0.086
81 | CFMHLLVQLFLWDSKEL [RPN3] | 1.54 ± 0.15
82 | CINELDNWNAPLIMATC [RPO31] | 3.54 ± 0.12
83 | CKLFDKISFNLRLKLFL [SRB8] | 1.18 ± 0.046
84 | CLNCEKSKLFEWKSEFV [SNM1] | 2.7 ± 0.12
85 | CLSPGAFLSKVPEFFQT [SRP14] | 2.6 ± 0.068
86 | CMEVASAFMKFSKAIEW [BRR2] | 1.98 ± 0.043
87 | CRDSDDHKRFIVFHNEF [DIS3] | 3.23 ± 0.065
88 | CRSCPYEFPIEGIEIYD [RPC11] | 2.08 ± 0.093
89 | CTEAGLLALRERRMQVT [RPT2] | 2.7 ± 0.11
90 | CTESTRENALYDYYALQ [SNF2] | 2.91 ± 0.083
91 | CTQMTDEGLLNMVSLRG [GRR1] | 2.02 ± 0.054
92 | CVAAWGVCNHAFHLHCI [HRT1] | 2.28 ± 0.045
93 | CWLSNIDIQTQDLNQRF [RRI1] | 3.17 ± 0.079
94 | DAHGVTQARVITGNKIM [RPS13] | 1.56 ± 0.062
95 | DAIIPFAAIPEQGIELE [FAS2] | 3.41 ± 0.1
96 | DAITVKDVKAWAGKRLW [COR1] | 2.37 ± 0.044
97 | DAKKARFWSFMKTQRFV [SIR4] | 2.75 ± 0.066
98 | DAKSTPLRLRLYDNFVS [RPN9] | 2.87 ± 0.082
99 | DALLNSTTEHINIDDLL [YJL039C/NUP192] | 3.17 ± 0.059
100 | DATANATANATANATAN [DSN1] | 3.12 ± 0.043
101 | DATRVFVNGVWHGVHRN [RPB2] | 3.27 ± 0.066
